Measured values: PMC5716044 (The Journal of Experimental Medicine, 2017)
Numbering of substitutions follows the chain as printed. Names and notes keep the numbering of the source. One block for each binder: values may come before it.

Target: full-length EphA4 containing C-terminal FLAG and hexahistidine tags (EphA4-FLAGhis6) (human, UniProt P54764 20-986)
Experiment: pull-down

full-length EphA4 containing C-terminal FLAG and hexahistidine tags (EphA4-FLAGhis6), sequence (P54764 20-986): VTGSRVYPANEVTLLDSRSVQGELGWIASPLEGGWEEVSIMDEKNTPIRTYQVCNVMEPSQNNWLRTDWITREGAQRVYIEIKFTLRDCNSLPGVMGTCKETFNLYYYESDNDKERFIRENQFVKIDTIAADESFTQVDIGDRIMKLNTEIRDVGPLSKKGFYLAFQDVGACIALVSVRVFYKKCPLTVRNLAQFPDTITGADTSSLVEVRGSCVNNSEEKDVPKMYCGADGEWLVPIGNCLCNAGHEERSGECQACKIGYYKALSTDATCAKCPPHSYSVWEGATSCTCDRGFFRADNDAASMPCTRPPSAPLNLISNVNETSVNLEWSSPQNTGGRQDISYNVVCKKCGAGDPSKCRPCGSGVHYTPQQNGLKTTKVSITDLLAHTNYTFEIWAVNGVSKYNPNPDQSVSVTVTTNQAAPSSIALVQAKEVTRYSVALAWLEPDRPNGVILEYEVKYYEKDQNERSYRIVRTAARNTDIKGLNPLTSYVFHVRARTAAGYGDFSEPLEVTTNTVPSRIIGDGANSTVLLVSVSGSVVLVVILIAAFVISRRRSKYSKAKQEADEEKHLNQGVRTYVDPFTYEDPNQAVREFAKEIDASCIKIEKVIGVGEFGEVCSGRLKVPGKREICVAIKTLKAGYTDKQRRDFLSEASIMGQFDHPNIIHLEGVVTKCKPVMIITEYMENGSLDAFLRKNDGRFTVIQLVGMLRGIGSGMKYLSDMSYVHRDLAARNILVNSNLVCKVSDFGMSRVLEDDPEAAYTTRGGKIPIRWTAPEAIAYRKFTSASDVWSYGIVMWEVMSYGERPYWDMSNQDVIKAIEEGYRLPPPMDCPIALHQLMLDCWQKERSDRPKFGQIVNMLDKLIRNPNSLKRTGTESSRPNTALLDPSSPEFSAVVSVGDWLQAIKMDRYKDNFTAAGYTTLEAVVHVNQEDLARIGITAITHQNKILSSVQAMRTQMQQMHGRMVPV

binding result: binds
B1: SORLA YWTD repeat/EGF-like region (aa 758-1,076) fused to Fc, WT (Fc fusion, UniProt Q92673 758-1076, looked up)
chain: NEFILYAVRKSIYRYDLASGATEQLPLTGLRAAVALDFDYEHNCLYWSDLALDVIQRLCLNGSTGQEVIINSGLETVEALAFEPLSQLLYWVDAGFKKIEVANPDGDFRLTIVNSSVLDRPRALVLVPQEGVMFWTDWGDLKPGIYRSNMDGSAAYHLVSEDVKWPNGISVDDQWIYWTDAYLECIERITFSGQQRSVILDNLPHPYAIAVFKNEIYWDDWSQLSIFRASKYSGSQMEILANQLTGLMDMKIFYKGKNTGSNACVPRPCSLLCLPKANNSRSCRCPEDVSSSVLPSGDLMCDCPQGYQLKNNTCVKQEN

binding result: binds
B2: SORLA YWTD repeat/EGF-like region (aa 758-1,076) fused to Fc, T947M variant (Fc fusion, UniProt Q92673 758-1076, looked up)
chain: B1 chain with T190M
